Experimental data taken from patent US20140072577A1 (AstraZeneca / MedImmune, published 2014).

Molecular target: T1, BSA (bovine, UniProt P02769)
T1 construct: also called bovine serum albumin
Assay: ELISA, BSA as control antigen; detection with anti-human IgG HRP

T1 sequence (P02769 25-607 limits assumed): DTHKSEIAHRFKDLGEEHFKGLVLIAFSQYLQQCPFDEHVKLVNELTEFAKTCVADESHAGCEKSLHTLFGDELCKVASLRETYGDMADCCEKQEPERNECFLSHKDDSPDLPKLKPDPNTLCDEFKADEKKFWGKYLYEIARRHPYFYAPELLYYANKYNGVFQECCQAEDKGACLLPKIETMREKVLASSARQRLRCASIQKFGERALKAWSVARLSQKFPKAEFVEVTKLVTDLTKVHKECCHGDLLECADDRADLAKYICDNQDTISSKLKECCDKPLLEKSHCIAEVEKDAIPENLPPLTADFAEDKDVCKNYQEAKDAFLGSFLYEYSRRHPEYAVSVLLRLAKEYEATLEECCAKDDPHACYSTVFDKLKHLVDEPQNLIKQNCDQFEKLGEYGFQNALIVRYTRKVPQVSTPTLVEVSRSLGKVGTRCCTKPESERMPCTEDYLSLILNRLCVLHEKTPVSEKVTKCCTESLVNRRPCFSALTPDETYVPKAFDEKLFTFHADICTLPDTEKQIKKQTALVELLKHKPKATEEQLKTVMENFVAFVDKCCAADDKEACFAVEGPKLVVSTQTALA

B1: LC10 YTE (antibody corresponding to mAb LC10 containing an Fc variant (antibody, V domains shown)
VH: EVQLVESGGGLVQPGGSLRLSCAASGFTFSSHDMHWVRQATGKGLEWVSGIGTAGDTYYPDSVKGRFTISRENAKNSLYLQMNSLRAGDTAVYYCARDRYSPTGHYYGMDVWGQGTTVTVSS
VL: DIQMTQSPSTLSASVGDRVTITCRASQSISSWLAWYQQKPGKAPKLLIYKASSLESGVPSRFSGSGSGTEFTLTISSLQPDDFATYYCKQYADYWTFGQGTKVEIKR
notes: also called LC10-IgG1-YTE; MEDI4893
binding result: no binding
